Experimental data as given in publication doi:10.1101/580043 (bioRxiv, 2019).
Where no end group is shown, it is not given here.

T1: Recombinant full-length MBP-tagged PRG-1 (C. elegans, UniProt P90786 1-824)
T1 sequence (looked up): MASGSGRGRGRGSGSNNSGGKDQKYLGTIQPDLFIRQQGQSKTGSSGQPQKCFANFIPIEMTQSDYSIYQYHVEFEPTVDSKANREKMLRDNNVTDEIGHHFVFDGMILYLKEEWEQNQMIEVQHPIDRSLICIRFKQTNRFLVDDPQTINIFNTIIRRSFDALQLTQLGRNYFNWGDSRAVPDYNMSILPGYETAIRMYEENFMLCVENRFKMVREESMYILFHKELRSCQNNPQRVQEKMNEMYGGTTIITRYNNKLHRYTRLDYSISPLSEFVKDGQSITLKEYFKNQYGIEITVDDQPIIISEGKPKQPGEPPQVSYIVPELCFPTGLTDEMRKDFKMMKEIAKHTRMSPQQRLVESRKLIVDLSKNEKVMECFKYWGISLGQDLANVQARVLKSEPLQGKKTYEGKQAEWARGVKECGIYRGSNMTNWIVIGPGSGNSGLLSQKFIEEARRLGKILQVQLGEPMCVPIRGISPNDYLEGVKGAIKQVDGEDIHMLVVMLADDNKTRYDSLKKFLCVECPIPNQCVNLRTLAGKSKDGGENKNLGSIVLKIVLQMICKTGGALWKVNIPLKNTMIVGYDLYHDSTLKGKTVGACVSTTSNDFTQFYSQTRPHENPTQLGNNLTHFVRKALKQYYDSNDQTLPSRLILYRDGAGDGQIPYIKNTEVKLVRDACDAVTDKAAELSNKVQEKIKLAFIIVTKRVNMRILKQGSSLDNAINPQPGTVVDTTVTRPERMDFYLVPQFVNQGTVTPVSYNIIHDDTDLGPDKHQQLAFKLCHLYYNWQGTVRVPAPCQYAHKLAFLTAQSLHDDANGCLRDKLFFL

B1: DEPS-1 PBS motif peptide (peptide)
chain: NFDNIEEAKNLERRSKIPLKFGEVILWNESDCDHDKRIIL
modifications: also: labelled with atto-488 NHS ester, site not given here
B2: Recombinant full-length MBP-tagged DEPS-1 (natural protein, C. elegans, UniProt Q9N303 1-619, looked up)
chain: MSERQSKYFDYQGIVISSTGQDNQDSETDLVYLIQAHGKAAPKNIMYGVSKCAFVPTNLERNFDNIEEAKNLERRSKIPLKFGEVILWNESDCDHDKRIILHIKREKPIYEASSSRNGLILKVGGVIQPTSTTSFWTPLCTVTMPETEATRAEPDVWLYAWIRFETTMKSGLDPFNMTATFESFDSCDPSDQARVCEAPWNAGSPDSKFGVWRPDPKPADSDDEIDIEPREGWHLPEDKWAEVIKMQLGLYVGERLLICKELSQFDFIIPLQKPFSRGTDKTLIYPAVGEYFHFSAIWSMQHNGFLIYELQPVPLLRQHVTSVNGNLLTRVVPASIRGLFVDKEGTLGLIDDPHHLLSFFEFHPAGYEFLKAMAEVRAVRTSENKSVRYRIVRTSGMSIFENWLRDTQFVVGPVKGIRINEDTVICAKHPNVYFKIPNNLKEGIPIGGGVQFVGKRQAGVDSEIMITECSPCPAFTCKNYSVSGDTRLFQVYLKPNCDHEQLAESDSMGFVDFRELETPCRGKFLAWVRESITVNDCRRAATIMEVCSTAICPPLIAMSANSSRATSARTTPAGSSIGSRSSIQSRASAATSVSSNRFVGPSSRRTPSGTPQSSTSSRV
modifications: labelled with atto-488 NHS ester

Tests used:
[1] = target: MBP-tagged PRG-1 PIWI domain (C. elegans); assay: MST
[2] = target: T1, Recombinant full-length MBP-tagged PRG-1; assay: MST

Binder	Kd [1]	Kd [2]
B1	1900 nM	
B2		855 nM
